T1: O772P 3-repeat recombinant protein (human)
T1 construct: Repeats are residues 14-452 of the entry
T1 chain: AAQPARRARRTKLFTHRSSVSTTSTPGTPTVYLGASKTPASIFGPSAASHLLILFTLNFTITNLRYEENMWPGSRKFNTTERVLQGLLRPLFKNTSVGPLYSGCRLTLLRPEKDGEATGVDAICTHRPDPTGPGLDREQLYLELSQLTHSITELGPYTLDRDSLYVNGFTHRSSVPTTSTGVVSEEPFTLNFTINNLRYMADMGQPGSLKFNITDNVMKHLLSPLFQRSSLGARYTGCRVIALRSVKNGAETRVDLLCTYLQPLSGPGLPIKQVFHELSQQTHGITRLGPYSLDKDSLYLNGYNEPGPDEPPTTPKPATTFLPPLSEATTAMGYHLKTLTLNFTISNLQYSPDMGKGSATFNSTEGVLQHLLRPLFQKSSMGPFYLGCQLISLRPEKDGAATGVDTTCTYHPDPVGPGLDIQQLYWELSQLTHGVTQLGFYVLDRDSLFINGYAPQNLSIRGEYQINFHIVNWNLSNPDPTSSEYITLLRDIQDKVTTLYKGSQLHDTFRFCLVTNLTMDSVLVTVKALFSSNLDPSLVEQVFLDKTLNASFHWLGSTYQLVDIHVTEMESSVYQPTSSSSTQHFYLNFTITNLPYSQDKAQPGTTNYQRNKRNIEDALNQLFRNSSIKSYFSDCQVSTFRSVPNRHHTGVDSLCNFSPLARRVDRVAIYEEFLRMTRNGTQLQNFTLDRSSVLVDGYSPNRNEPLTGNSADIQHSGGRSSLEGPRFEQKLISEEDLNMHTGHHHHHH

T2: O772P 3-repeat TM on transfected NIH/3T3 cells (human)
T2 construct: also called NIH/3T3 O772P 3-repeat
T2 chain: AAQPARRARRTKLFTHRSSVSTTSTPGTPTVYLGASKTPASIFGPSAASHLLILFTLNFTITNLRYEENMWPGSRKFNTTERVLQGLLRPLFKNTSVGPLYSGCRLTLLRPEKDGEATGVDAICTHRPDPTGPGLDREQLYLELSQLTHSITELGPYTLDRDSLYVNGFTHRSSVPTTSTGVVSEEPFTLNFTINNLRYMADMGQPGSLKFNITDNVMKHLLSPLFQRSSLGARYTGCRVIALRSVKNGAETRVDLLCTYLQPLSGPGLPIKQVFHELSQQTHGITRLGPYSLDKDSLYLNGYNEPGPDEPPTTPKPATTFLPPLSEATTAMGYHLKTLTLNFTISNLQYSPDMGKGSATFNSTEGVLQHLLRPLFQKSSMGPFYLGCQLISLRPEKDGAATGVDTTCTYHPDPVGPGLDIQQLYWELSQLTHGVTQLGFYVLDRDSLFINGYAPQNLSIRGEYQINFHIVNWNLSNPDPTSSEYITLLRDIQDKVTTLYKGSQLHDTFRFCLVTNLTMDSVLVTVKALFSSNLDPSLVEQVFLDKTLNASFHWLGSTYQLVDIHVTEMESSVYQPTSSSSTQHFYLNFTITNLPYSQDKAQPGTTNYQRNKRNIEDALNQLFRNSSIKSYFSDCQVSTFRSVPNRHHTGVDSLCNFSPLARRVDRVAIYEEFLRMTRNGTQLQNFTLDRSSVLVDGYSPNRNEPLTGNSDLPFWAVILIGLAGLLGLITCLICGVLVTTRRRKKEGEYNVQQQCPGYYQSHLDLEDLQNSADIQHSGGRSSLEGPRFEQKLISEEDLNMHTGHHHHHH

B1: monoclonal antibody 117.1 (antibody, V domains shown)
VH: QVTLKESGPGILQPSQTLSLTCSFSGFSLSTPGMGVGWIRQPSGKGLEWLAHIWWDDFKRDNPALKSRLTISKDTSSSQVFLKIASVDTADTATYYCVRVDGNFLSWYFDVWGAGTTVTVSS
VL: DAVMTQTPLSLPVSLGDQASISCRSSQSLVHSNGNTYLHWYLQKPGQSPKLLIYKVSNRFSGVPDRFSGSGSGTDFTLRISRVEAEDLGVYFCSQSRYVPWTFGGGTKLEIK
notes: Murine hybridoma antibody
B2: monoclonal antibody 368.1 (antibody, V domains shown)
VH: EVQLQQSGPELVRTGASVKISCKASGYSFTGFYMHWVKQSLGKSLEWIGYVSCYTGATTYTQKFKGKATFTVDTSSSTAYMQLNSLTSEDSAVYYCAREGDYYSMDFWGQGTSVTVSS
VL: DVVMTQTPLSLPVSLGDQASISCRSSQSLERTNGNTYLHWYLQKPGQSPKLLIYKVSSRFSGVPDRFSGSGSGTDFTLKISRVEAEDLGIYFCSQTTHGPPTCGGGTKLEIK
notes: Murine hybridoma antibody
B3: monoclonal antibody 501.1 (antibody, V domains shown)
VH: QIQLVQSGPELKKPGETVQISCKASGYIFTDYGMNWVKQAPGKGLKWMGCINTYTGETIYSDDFRGRFAISLETSASTAFIQINNLKNEDAATYFCARGNYRDAIDYWGQGTSVTVSS
VL: DIKMTQSPSSIYASLGERVTITCKASQDIKSYLSWYQQKPWKSPKTLIYYATTLADGVPSRFSGSGSGQDYSLIINSLESDDIATYFCLHHDESPFTFGSGTKLEI
notes: Murine hybridoma antibody

What follows are binders tested against T3, CA 125/O772P on OVCAR-3 cells (human, UniProt Q8WXI7 1-14507) (assay: flow cytometry, OVCAR-3 cells; Ab 2 µg/ml).
T3 construct: whole, on cells
B1 was tested, and the “% positive cells” value was 93%. In the case of B2, the “% positive cells” value is reported as 89%. In the case of B3, the “% positive cells” value is reported as 95%.

Biological target: T1, O772P 3-repeat recombinant protein
Assay: BIAcore SPR, O772P 3-repeat immobilized, mAb injected
Experimental: A […] BIAcore biosensor chip was docked into the BIAcore X instrument and activated with 55 μl of 1:1 NHS/EDC at room temperature. O772P 3-repeat region protein and BSA at 10 μg/ml in 0.05 M acetate buffer, pH 4.5, were immobilized onto the flow cell (FC) 1 and FC2 of the activated chip, respectively, at a flow rate of 5 μl/min to achieve a resonance response of 1000-2000 RU. The chip was then blocked by injection of 55 μl of ethanolamine-HCl, pH 8.5, and followed with washing 5 times with 50 mM NaOH-1 M NaCl. To measure the binding of anti-0722P mAbs to the O772P 3-repeat region immobilized to the chip, 30 μl of anti-0722P mAbs at varying concentrations in BIAcore running buffer (HBS-EP, Cat. #1001-080, BIAcore, Piscataway, N.J.) were injected over the sensor surface at a flow rate of 5 μl/min. Following completion of the injection phase, dissociation was monitored in BIAcore running buffer at the same flow rate for 360 seconds. The surface was regenerated between injections using 30 μl of 50 mM NaOH-1 M NaCl. Individual sensorgrams were analyzed using BIAevaluation.
For B1, the Kd was 12 nM. B2 showed a Kd of 0.7 nM. Binder B3 has a Kd of 70 nM.

Biological target: T1, O772P 3-repeat recombinant protein
Assay: ELISA competition, plate-bound O772P 3-repeat; no competitor
Experimental: (§1) On the next day, the plates were washed with 200 μl 1×PBST (1× phosphate-buffered saline (PBS), 0.05% Tween 20) three times and blocked with 100 μl of 1×PBST containing 1% bovine serum albumin (BSA) for 2 hours at 37° C. […] After 1 hour incubation at 37° C., the plates were then washed with 1×PBST three times. For signal detection, 100 μl of HRP-conjugated sheep anti-mouse IgG (1:2000 dilution into 1×PBST+1% BSA, Amersham Biosciences) was added to each well and incubated for 1 hour at 37° C. The plates were washed again with 1×PBST three times. Finally, 100 μl¹ of a mixture of TMB substrate and H₂O₂ (1:1 ratio, KPL) was added into each well and the absorbance was measured at 405 nm with a plate reader (Molecular Devices Corp., Sunnyvale, Calif.). The assay was done in triplicate for each selected antibody and average values were calculated and presented. The percent inhibition compared to no competition was calculated for individual antibodies based on average values. Controls for blank and individual reagents were also included in each experiment.
Binder B1 has an absorbance of 0.619 OD. For B2, the absorbance was 1.29 OD. B3 gave an absorbance of 0.856 OD.

Biological target: T2, O772P 3-repeat TM on transfected …
Assay: flow cytometry, NIH/3T3 cells expressing O772P 3-repeat TM; Ab 2 µg/ml
With B1 the “% positive cells” value was 83%. For B2, the “% positive cells” value was 86%. B3 was tested, and the “% positive cells” value was 89%.

Biological target: T1, O772P 3-repeat recombinant protein
Assay: ELISA competition, plate-bound O772P 3-repeat; competitor shed CA 125/O772P
Experimental: as §1
For B1, the “absorbance w/shed CA 125/O772P competitor (25-fold w/w excess)” value was 0.554 OD. For B2, the “absorbance w/shed CA 125/O772P competitor (25-fold w/w excess)” value was 1.33 OD. In the case of B3, the “absorbance w/shed CA 125/O772P competitor (25-fold w/w excess)” value is reported as 0.735 OD.

Biological target: T1, O772P 3-repeat recombinant protein
Assay: ELISA competition, plate-bound O772P 3-repeat; competitor soluble O772P 3-repeat
Experimental: as §1
For B1, the “absorbance w/O772P 3-repeat competitor (10 x w/w excess)” value (“absorbance w/O772P 3-repeat competitor” below) was 0.071 OD. For B2, the “absorbance w/O772P 3-repeat competitor” value was 0.915 OD. B3 was tested, and the “absorbance w/O772P 3-repeat competitor” value was 0.065 OD.

Source: patent US20050064518A1 (PURDUE PHARMA L P, published 2005)
